± gives the standard deviation.
Experiment: protein stability index of a GFP-peptide fusion (GPS, HEK-293T) (PSI 1-6); higher = more stable
[1] = treatment: DMSO, c terminus: a fixed tail appended
[2] = treatment: MLN4924 1 uM, 8 h, c terminus: a fixed tail appended
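Note: 24-mer peptide tiles fused after GFP, lentivirally expressed, FACS-sorted into six equal bins by GFP/DsRed ratio, decoded by Illumina sequencing, PSI is the read-weighted mean bin number.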

Sequence | protein stability index [1] | protein stability index [2] | protein stability index (treatment: DMSO, c terminus: native) | protein stability index (treatment: MLN4924 1 uM, 8 h, c terminus: native)
RCEMEAQNQEYKMLLDIKTRLEQE [KRT15] | 4.44 ± 0.17 | 4.6 ± 0.18 | – | –
GDMNHEWIGNEWLPSLGLPQYRSY [PPFIA4] | 2.41 ± 0.73 | 2.8 ± 0.38 | – | –
PAADGARAPRSPGQVTPRGLRLRL [C6orf223] | 3.96 ± 0.12 | 3.97 ± 0.19 | – | –
ASQPVKKQQENATSCSLELIGDLI [WDR41] | 3.47 ± 0.27 | 3.45 ± 0.38 | – | –
VDLDPTDGKLFPSDGFRDCKKGDP [ELF3] | 5.31 ± 0.1 | 5.2 ± 0.25 | – | –
ENVKDVPFGFQTVTSDVNKLSSFY [SERPINB5] | 2.74 ± 0.15 | 3.09 ± 0.46 | – | –
THTKEQILELVVLEQFVAILPKEL [ZNF24] | 3.04 ± 0.72 | 2.54 ± 0.66 | – | –
KMTDLLSRRLQLGSEENGRYFSLS [PCDHGC5] | 2.41 ± 0.16 | 2.47 ± 0.14 | – | –
FRPVSETCTDRSGISTGHWSGEVK [FUT8] | 3.79 ± 0.28 | 3.84 ± 0.26 | – | –
LMRHMATHSPQKSHQCAHCEKTFN [PLAGL1] | 3.24 ± 0.3 | 3.2 ± 0.28 | – | –
SQAQETTIIASNAEEAEILHSACG [TOR1AIP2] | 5.26 ± 0.29 | 5.21 ± 0.27 | – | –
KLATEAGVEVIVRISHTLYDLDKI [CRY1] | 2.97 ± 0.32 | 3.13 ± 0.71 | – | –
MSELFLHTPSDTGVSFQAISSMAD [PKD2L1] | 3.41 ± 0.15 | 3.61 ± 0.27 | – | –
RSIQGHNDYICPATNQCTIDKNRR [ESR2] | 3.84 ± 0.43 | 4.21 ± 0.33 | – | –
LVEELSPASEKKPVPPSEGKSRLS [BCL2L13] | 5.32 ± 0.31 | 5.46 ± 0.15 | – | –
MMLFNDGTFQVNFYHDHTKIIICS [PLK2] | 2.79 ± 0.83 | 2.88 ± 0.86 | – | –
PVTPQVGEGRKSRKFSRLSCLRRR [SMG5] | 4.36 ± 0.068 | 4.34 ± 0.12 | – | –
TVQGKKGVYMTDITPQGVAMRAGV [PDZK1] | 3.12 ± 0.079 | 3.32 ± 0.25 | – | –
SNATATPSVRKKAGSFSRRLIKRF [C2CD2L] | 3.47 ± 0.18 | 3.61 ± 0.18 | – | –
HLIKHRRTHTGEQPYTCSICRRNF [ZNF75A] | 2.56 ± 0.28 | 2.99 ± 0.41 | – | –
KKKNTNKQEMGTYLRFIVSRMKER [ZMYND11] | 2.47 ± 0.16 | 2.92 ± 0.25 | – | –
PRTSQSEETRVWHRRDGKWQNVHF [CAMK2B] | 3.29 ± 0.3 | 3.39 ± 0.22 | – | –
LDPWFAGSSNVGINRWRFLLQCLE [CRY1] | 2.5 ± 0.36 | 2.54 ± 0.23 | – | –

Sequence | protein stability index [1] | protein stability index [2] | protein stability index (treatment: DMSO, c terminus: native) | protein stability index (treatment: MLN4924 1 uM, 8 h, c terminus: native)
VNDNAPEVLLASLANPVLESTPVG [PCDHGC5] | 4.55 ± 0.18 | 4.51 ± 0.12 | – | –
SAAGHLKVVQSLLNHGASVNNTTL [FEM1C] | 3.06 ± 0.21 | 3.13 ± 0.38 | – | –
TVKTHLTSLKTKFPAEQYYRFHEH [TSN] | 2.32 ± 0.25 | 2.44 ± 0.36 | – | –
YSDKNAKLTKESYPVVVAESMYGD [TENT5D] | 4.39 ± 0.054 | 4.43 ± 0.22 | – | –
VVKKIALREIRMLKQLKHPNLVNL [CDKL4] | 2.2 ± 0.76 | 2.63 ± 0.11 | – | –
YSKFHGLEMCVDARTFGNEARFIR [KMT2E] | 2.21 ± 0.17 | 2.25 ± 0.22 | – | –
TKNKSKHALRKKQLKRQKRDYIHS [FAM9B] | 3.71 ± 0.1 | 3.76 ± 0.1 | – | –
NCLPKHLLHSVNQRFGSNNTSGS [KLHDC2] | – | – | 2.69 ± 0.33 | 2.99 ± 0.28
EAQLLQLKVKCLNNLAASQLKLDH [FKBP8] | 2.69 ± 0.26 | 2.95 ± 0.23 | – | –
KGHERTVQYLQHLGTENLHLIFSY [VPS39] | 2.39 ± 0.46 | 2.59 ± 0.67 | – | –
SLYILRGSARYDFSHEILRDEESF [ALKBH7] | 2.63 ± 0.21 | 2.2 ± 0.6 | – | –
VSLAVTLHRLKFLGFARRNWGNGK [GDAP1] | 2.38 ± 0.41 | 2.33 ± 0.64 | – | –
GELEDESLNRACHQQNKIKDLQKE [CEP70] | 5.3 ± 0.28 | 5.34 ± 0.24 | – | –
SDTTHLVTLGGVLRQQLVVSKELR [KLHL13] | 3.04 ± 0.069 | 3.1 ± 0.3 | – | –
ELCCVAELDNPMQQKWTKPARAGS [C2CD2L] | 3.37 ± 0.39 | 3.6 ± 0.2 | – | –
AGEGLPQVYYFGPCGKYNAMVLEL [CSNK1G1] | 3.19 ± 0.65 | 2.65 ± 0.94 | – | –
SEGLVGALMHVMQKRSRAIHSSDE [WAS] | 3.67 ± 0.3 | 3.79 ± 0.15 | – | –
SLKEDLTQHKFICEQCGKCKCGEC [SPRY1] | 5.32 ± 0.36 | 5.22 ± 0.14 | – | –
EHLPVKPDTMEKLRTHIDAIILAL [DENND6A] | 2.64 ± 0.3 | 2.63 ± 0.51 | – | –
KALAIILHLLYLLEKVECTPSQEH [FEM1A] | 1.96 ± 0.35 | 1.99 ± 0.13 | – | –
AARPDVKCVVHIHTPAGAAVSAMK [ADD1] | 2.95 ± 0.28 | 3.11 ± 0.28 | – | –
ESFRDLQLRLLQAPLQADLTEQVW [SCARA5] | 2.59 ± 0.089 | 3.1 ± 0.4 | – | –
SDVLTISGTIMKIGIEAKNLASYD [MCOLN1] | 2.39 ± 0.24 | 2.5 ± 0.33 | – | –

Sequence | protein stability index [1] | protein stability index [2] | protein stability index (treatment: DMSO, c terminus: native) | protein stability index (treatment: MLN4924 1 uM, 8 h, c terminus: native)
EVSSIQVRRKPQHGVCSQLLGNYR [SERPINB9P1] | 2.84 ± 0.38 | 2.94 ± 0.29 | – | –
EIPKNCVVAAVGKELIIFRLVAPT [WDR41] | 2.69 ± 0.6 | 2.28 ± 0.43 | – | –
FESLPENASHKLEVRLVPVSFEDP [ATE1] | 3.68 ± 0.13 | 3.68 ± 0.31 | – | –
VQILCHTYWEHWTSQGQVRMRLFG [RTP4] | 2.45 ± 0.87 | 2.52 ± 1.1 | – | –
DLIGLPWVCFIYTIMSLASLLFVV [SLC2A12] | 4.15 ± 0.79 | 3.95 ± 0.71 | – | –
GDDQPSETDHLSMEEEDPMPRQIS [TPRG1] | 5.47 ± 0.17 | 5.64 ± 0.22 | – | –
VKSHLLDYVMTTLLFSDKNVNSNL [TRIP13] | 3.08 ± 0.36 | 2.79 ± 0.32 | – | –
TKETEQLRSQLQTLKQQHQQAVEQ [CCDC89] | 4.9 ± 0.19 | 4.87 ± 0.21 | – | –
RKHSDLEEEEERWEWSPAGLQSYQ [SERTAD3] | 4.35 ± 0.26 | 4.38 ± 0.17 | – | –
PAQSHTLQANDVFHKQQWFNCIRA [NET1] | 2.71 ± 0.38 | 2.71 ± 0.3 | – | –
EVMKCIVEVISDTLSKPSPMPVSQ [CHGA] | 2.55 ± 0.18 | 2.48 ± 0.4 | – | –
PTMPALFSDHTFRHYAYLRDSLSH [INTS4] | 2.3 ± 0.14 | 2.31 ± 0.12 | – | –
PGAYYPYERTLGQYQYERYGAVEL [IRX6] | 2.3 ± 0.33 | 2.41 ± 0.21 | – | –
VVILPCQHNLCRKCASDIFQASNP [TRIM55] | 2.48 ± 0.34 | 2.38 ± 0.22 | – | –
LNGENSDIKICALGEEWSLHKIYL [GMCL1] | 2.14 ± 0.32 | 1.94 ± 0.41 | – | –
SAGEQKTERMDKVGDALEEVLSKA [GADD45A] | 5.58 ± 0.18 | 5.41 ± 0.26 | – | –
DLLAYGAKAELPKYKSFNRTAMPY [MYOZ1] | 2.42 ± 0.12 | 2.29 ± 0.19 | – | –
LQLRYSLRILIGDPPHHDHHDEFC [BEX5] | 2.74 ± 0.54 | 2.48 ± 0.45 | – | –
ERIEARLATLEGDDPSLRKTHSSP [PSD2] | 5.08 ± 0.37 | 5.09 ± 0.18 | – | –
LRAQVPFEQILSLPELKANPFKER [CIB1] | 3.17 ± 0.29 | 3.1 ± 0.42 | – | –
HPNIITLHDIFENKTDVVLILELV [DAPK3] | 2.54 ± 0.14 | 2.34 ± 0.23 | – | –
WRNLGVQQSQGWVHYMIHEPEPHI [CKS1B] | 2.24 ± 0.23 | 2.28 ± 0.18 | – | –
CFQDFKEEKPQENKTWREQYLRLP [ELOA2] | 3.15 ± 0.35 | 3.25 ± 0.41 | – | –

Sequence | protein stability index [1] | protein stability index [2] | protein stability index (treatment: DMSO, c terminus: native) | protein stability index (treatment: MLN4924 1 uM, 8 h, c terminus: native)
YLPQCSYFKCVQKDIQPYMRRMVA [CCND2] | 2.11 ± 0.28 | 2.01 ± 0.33 | – | –
WERKEGGGGISCVLQDGCVFEKAG [CPOX] | 3.82 ± 0.12 | 3.84 ± 0.24 | – | –
PQALPEPMQESKAEGNNQAPGEEE [CHGA] | 5.54 ± 0.24 | 5.5 ± 0.35 | – | –
ETLQPSVWFGGREHVLMFAKLALY [TMEM175] | 2.52 ± 0.46 | 2.44 ± 0.43 | – | –
DGKPFPELVLEQQLDREAQARHQL [PCDHGC5] | 4.92 ± 0.33 | 5.04 ± 0.27 | – | –
QKLNPGFDLAKGNAGKVNLPKELP [PLAGL1] | 4.27 ± 0.14 | 4.15 ± 0.3 | – | –
RMTGGRPPLPPPDDPATLGPHLGL [DYRK1B] | 4.2 ± 0.2 | 4.26 ± 0.18 | – | –
FLPVDTSNNNGRIKQLRSGGTPIR [PTPRD] | 3.33 ± 0.3 | 3.51 ± 0.063 | – | –
VSGINGDIRAKKIASIADVCESMK [HNF4A] | 3.52 ± 0.15 | 3.72 ± 0.31 | – | –
QPYTCSICRRNFSRRSSLLRHQKL [ZNF75A] | 3.43 ± 0.37 | 3.71 ± 0.35 | – | –
KYNHAACFGLQPGCLLPDGSRMMA [NLN] | 2.59 ± 0.27 | 2.55 ± 0.33 | – | –
SSEKKRQSSADGSQPPKKKPKTTN [RBBP5] | 5.24 ± 0.37 | 5.28 ± 0.3 | – | –
DHELGRCTDSVVKYELMRPSNKAP [EHMT1] | 4.19 ± 0.091 | 4.23 ± 0.31 | – | –
VRRTDDTPVVLVGNKSDLKQLRQV [RIT1] | 3.56 ± 0.26 | 3.6 ± 0.23 | – | –
RRKCGQYWPLEKDSRIRFGFLTVT [PTPN9] | 2.3 ± 0.69 | 2.16 ± 0.47 | – | –
TPPSSRRVWSPPRVHKVEMGFGGG [ZBTB22] | 3.22 ± 0.4 | 3.33 ± 0.081 | – | –
TWESKNILAVSFAPLVQPSKNDNG [PCMTD1] | 3.3 ± 0.41 | 3.6 ± 0.51 | – | –
ILDQTTSEDAVGGATLGQTTSEEA [HDAC6] | 5.42 ± 0.065 | 5.5 ± 0.15 | – | –
GIDIMKTSFPGRGSIPEFFHIMKR [AASDHPPT] | 2.33 ± 0.59 | 2.501 ± 0.013 | – | –
PDFYKQSSPNLQVSSDGTLKYMEV [PCDHGC5] | 3.4 ± 0.16 | 3.39 ± 0.45 | – | –
